Assay results published in patent US20050282739A1.
Square brackets hold non-standard residues; d marks the D form. Ends that are not written are not given here. Nle = CCCC[C@H](N)C(=O)O

B1: metallopeptide 2-11 (peptide)
peptide: Ac-SYS[dC][Nle]EHFRWGKPV-NH2
modifications: also: oxorhenium(V) N3S1 chelate at D-Cys4
B2: metallopeptide 11-14 (peptide)
peptide: WAVC-NH2
modifications: also: bridge at 4 via oxorhenium(V) N3S1 chelate, other end not in the chain
B3: metallopeptide 12-1 (peptide)
peptide: [dF]QWVCGHLL-NH2
modifications: bridge (positions not given here) via ReOCl3(PPh3)2; also: oxorhenium(V) N3S1 tetradentate complex at Cys 5
B4: metallopeptide 11-5 (peptide)
peptide: WAVCHLL-NH2
modifications: also: bridge at 4 via oxorhenium(V) N3S1 chelate, other end not in the chain
B5: metallopeptide 4-7 (peptide)
peptide: YV[Nle]GHCFRWDRF-NH2
modifications: also: oxorhenium(V) N3S1 chelate: C6 SG + backbone N of G4, H5, C6, bridge at 6 via Re(V)=O, other end not in the chain
B6: metallopeptide 12-6 (peptide)
peptide: [dF]QWCVHLL-NH2
modifications: bridge (positions not given here) via ReOCl3(PPh3)2; also: oxorhenium(V) N3S1 tetradentate complex at Cys 4
B7: metallopeptide 11-6 (peptide)
peptide: AVCHLL-NH2
modifications: also: bridge at 3 via oxorhenium(V) N3S1 chelate, other end not in the chain
B8: metallopeptide 4-6 (peptide)
peptide: YV[Nle]GHFCRWDRF-NH2
modifications: also: oxorhenium(V) N3S1 chelate: C7 SG + backbone N of H5, F6, C7, bridge at 7 via Re(V)=O, other end not in the chain
B9: metallopeptide 11-13 (peptide)
peptide: QWAVC-NH2
modifications: also: bridge at 5 via oxorhenium(V) N3S1 chelate, other end not in the chain
B10: metallopeptide 4-9 (peptide)
peptide: YV[Nle]CGHFRWDRF-NH2
modifications: also: oxorhenium(V) N3S1 chelate: C4 SG + backbone N of V2, X3, C4, bridge at 4 via Re(V)=O, other end not in the chain
B11: metallopeptide 1-10 (peptide)
peptide: Ac-SYS[Nle]CEHFRWGKPV-NH2
modifications: also: oxorhenium(V) N3S1 chelate at Cys5
B12: metallopeptide 4-10 (peptide)
peptide: YVC[Nle]GHFRWDRF-NH2
modifications: bridge (positions not given here); not fully specified (bridges); printed as Tyr-Val-Cys-Nle-Gly-His-Phe-Arg-Trp-Asp-Arg-Phe-NH2.; also: oxorhenium(V) N3S1 complex
B13: metallopeptide 1-2 (peptide)
peptide: Ac-SYS[Nle]EHFRWGKGCV-NH2
modifications: also: oxorhenium(V) N3S1 chelate at Cys13
B14: metallopeptide 11-2 (peptide)
peptide: [dF]QWAVCH-NH2
modifications: bridge (positions not given here) via ReOCl3(PPh3)2; also: oxorhenium(V) N3S1 tetradentate complex at Cys 6
B15: metallopeptide 11-1 (peptide)
peptide: [dF]QWAVCHL-NH2
modifications: bridge (positions not given here) via ReOCl3(PPh3)2; also: oxorhenium(V) N3S1 tetradentate complex at Cys 6
B16: metallopeptide 1-9 (peptide)
peptide: Ac-SYS[Nle]ECHFRWGKPV-NH2
modifications: also: oxorhenium(V) N3S1 chelate at Cys6
B17: metallopeptide 12-4 (peptide)
peptide: [dF]QWVCHLL-NH2
modifications: bridge (positions not given here) via ReOCl3(PPh3)2; also: oxorhenium(V) N3S1 tetradentate complex at Cys 5
B18: metallopeptide 10-4 (peptide)
peptide: [dF]QW[dA]VCHLL-NH2
modifications: bridge (positions not given here) via ReOCl3(PPh3)2; also: oxorhenium(V) N3S1 tetradentate complex at Cys 6
B19: metallopeptide 11-11 (peptide)
peptide: WAVCH-NH2
modifications: also: bridge at 4 via oxorhenium(V) N3S1 chelate, other end not in the chain
B20: metallopeptide 11-12 (peptide)
peptide: AVCH-NH2
modifications: also: bridge at 3 via oxorhenium(V) N3S1 chelate, other end not in the chain
B21: metallopeptide 10-5 (peptide)
peptide: [dF]Q[dW]AVCHLL-NH2
modifications: bridge (positions not given here) via ReOCl3(PPh3)2; also: oxorhenium(V) N3S1 tetradentate complex at Cys 6
B22: metallopeptide 12-2 (peptide)
peptide: [dF]QWACVHLL-NH2
modifications: bridge (positions not given here) via ReOCl3(PPh3)2; also: oxorhenium(V) N3S1 tetradentate complex at Cys 5
B23: metallopeptide 11-9 (peptide)
peptide: AVCHL-NH2
modifications: also: bridge at 3 via oxorhenium(V) N3S1 chelate, other end not in the chain
B24: metallopeptide 10-3 (peptide)
peptide: [dF]QWA[dV]CHLL-NH2
modifications: bridge (positions not given here) via ReOCl3(PPh3)2; also: oxorhenium(V) N3S1 tetradentate complex at Cys 6
B25: metallopeptide 4-8 (peptide)
peptide: YV[Nle]GCHFRWDRF-NH2
modifications: also: oxorhenium(V) N3S1 chelate: C5 SG + backbone N of X3, G4, C5, bridge at 5 via Re(V)=O, other end not in the chain
B26: metallopeptide 11-8 (peptide)
peptide: WAVCHL-NH2
modifications: also: bridge at 4 via oxorhenium(V) N3S1 chelate, other end not in the chain
B27: metallopeptide 12-3 (peptide)
peptide: [dF]QWVCVHLL-NH2
modifications: bridge (positions not given here) via ReOCl3(PPh3)2; also: oxorhenium(V) N3S1 tetradentate complex at Cys 5
B28: metallopeptide 11-7 (peptide)
peptide: QWAVCHL-NH2
modifications: also: bridge at 5 via oxorhenium(V) N3S1 chelate, other end not in the chain
B29: metallopeptide 1-4 (peptide)
peptide: Ac-SYS[Nle]EHFRWGCKPV-NH2
modifications: also: oxorhenium(V) N3S1 chelate at Cys11
B30: metallopeptide 11-4 (peptide)
peptide: QWAVCHLL-NH2
modifications: also: bridge at 5 via oxorhenium(V) N3S1 chelate, other end not in the chain
B31: metallopeptide 11-3 (peptide)
peptide: [dF]QWAVC-NH2
modifications: bridge (positions not given here) via ReOCl3(PPh3)2; also: oxorhenium(V) N3S1 tetradentate complex at Cys 6

Experiments:
[1] = target: human melanocortin-3 receptor (hMC3-R) (human) (UniProt P41968); assay: 125I-NDP-α-MSH competition, hMC3-R membranes
[2] = target: bombesin receptor of rat brain membranes (rat); assay: 125I-Bombesin competition, rat brain membranes
[3] = target: melanocortin-1 receptor (MC1-R) of B-16 mouse melanoma cells (mouse) (UniProt Q01727); assay: 125I-NDP-α-MSH competition, B-16 membranes
[4] = target: human melanocortin-4 receptor (hMC4-R) (human) (UniProt P32245); assay: 125I-NDP-α-MSH competition, hMC4-R membranes
[5] = target: human melanocortin-5 receptor (hMC5-R) (human) (UniProt P33032); assay: 125I-NDP-α-MSH competition, hMC5-R membranes
human melanocortin-5 receptor (hMC5-R) (human), sequence (P33032 whole entry): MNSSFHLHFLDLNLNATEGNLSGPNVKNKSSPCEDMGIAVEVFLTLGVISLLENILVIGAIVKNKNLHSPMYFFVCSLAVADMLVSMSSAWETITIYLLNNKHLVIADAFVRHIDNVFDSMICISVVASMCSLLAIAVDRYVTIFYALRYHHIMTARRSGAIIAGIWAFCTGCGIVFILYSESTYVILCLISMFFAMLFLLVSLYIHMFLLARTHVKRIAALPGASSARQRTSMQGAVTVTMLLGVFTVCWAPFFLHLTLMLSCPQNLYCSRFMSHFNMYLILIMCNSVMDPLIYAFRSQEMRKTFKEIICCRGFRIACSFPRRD

melanocortin-1 receptor (MC1-R) of B-16 mouse melanoma cells (mouse), sequence (Q01727 whole entry): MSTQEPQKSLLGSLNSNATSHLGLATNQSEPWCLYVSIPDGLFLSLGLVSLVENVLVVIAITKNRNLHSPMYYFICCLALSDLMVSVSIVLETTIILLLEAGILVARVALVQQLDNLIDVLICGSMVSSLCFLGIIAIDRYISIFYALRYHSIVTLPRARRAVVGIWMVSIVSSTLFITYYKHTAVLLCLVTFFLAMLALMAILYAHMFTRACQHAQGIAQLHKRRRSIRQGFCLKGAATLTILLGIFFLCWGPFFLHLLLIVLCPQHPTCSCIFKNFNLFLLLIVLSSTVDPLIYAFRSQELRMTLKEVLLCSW
human melanocortin-4 receptor (hMC4-R) (human), sequence (P32245 whole entry): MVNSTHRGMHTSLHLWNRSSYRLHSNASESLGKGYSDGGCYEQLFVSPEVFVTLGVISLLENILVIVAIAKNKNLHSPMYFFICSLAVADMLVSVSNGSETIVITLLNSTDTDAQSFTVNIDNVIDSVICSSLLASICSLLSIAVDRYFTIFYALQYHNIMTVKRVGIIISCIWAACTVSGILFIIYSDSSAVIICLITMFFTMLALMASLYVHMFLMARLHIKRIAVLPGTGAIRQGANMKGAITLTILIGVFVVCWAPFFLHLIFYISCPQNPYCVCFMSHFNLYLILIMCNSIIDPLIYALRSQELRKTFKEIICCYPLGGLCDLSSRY
human melanocortin-3 receptor (hMC3-R) (human), sequence (P41968 whole entry): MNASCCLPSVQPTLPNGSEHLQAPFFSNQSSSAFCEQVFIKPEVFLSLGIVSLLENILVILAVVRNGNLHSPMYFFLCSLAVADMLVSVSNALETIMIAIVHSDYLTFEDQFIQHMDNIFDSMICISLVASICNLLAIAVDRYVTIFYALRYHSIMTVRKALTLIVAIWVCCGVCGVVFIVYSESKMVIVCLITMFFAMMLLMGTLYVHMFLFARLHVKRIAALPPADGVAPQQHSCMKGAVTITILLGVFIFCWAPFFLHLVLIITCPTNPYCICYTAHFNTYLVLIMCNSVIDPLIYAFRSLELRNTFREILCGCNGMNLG

Binder | % Inhibition [2] [%] | also measured
B1 |  | % Inhibition at 1 µM [1]: 5%
B2 | 8 | 
B3 | 2 | 
B4 | 18 | 
B5 |  | % Inhibition at 1 µM [3]: 4%; % Inhibition at 1 µM [4]: 4%
B6 | 10 | 
B7 | 6 | 
B8 |  | % Inhibition at 1 µM [3]: -8%
B9 | -50 | 
B10 |  | % Inhibition at 1 µM [3]: 1%; % Inhibition at 1 µM [4]: 4%
B11 |  | % Inhibition at 1 µM [4]: 7%
B12 |  | % Inhibition at 1 µM [4]: 2%
B13 |  | % Inhibition at 1 µM [1]: 6%
B14 | 25 | 
B15 | 98 | 
B16 |  | % Inhibition at 1 µM [4]: 3%

Binder | % Inhibition [2] [%] | also measured
B17 | 5 | 
B18 | 2 | 
B19 | -1 | 
B20 | 5 | 
B21 | 6 | 
B22 | 3 | 
B23 | 7 | 
B24 | 7 | 
B25 |  | % Inhibition at 1 µM [4]: -1%
B26 | 13 | 
B27 | 14 | 
B28 | 5 | 
B29 |  | % Inhibition at 1 µM [5]: 6%
B30 | 25 | 
B31 | -81 | 
